Publication PMC12527946 (2025)

B1: VLDLR(28–797)Δ(751–779)-C-tag (VLDLR ectodomain) (receptor)
chain: not shown
B2: Clu deletion mutant CC1 (natural protein)
chain 1: DQTVSDNELQEMSNQGSKYVNKEIQNAVNGVKQIKTLIEKTNEERKTLLSNLEEAKKKKEDALNETRESETKLKELPGVCNETMMALWEECKPCLKQTCMKFYARVCRSGSGLVGRQLEEFLNQSSPFYFWMNGDRIDSLLENDRQQTHMLDVMQDHFSRASSIIDELFQDRFFTREPQDTYHYLPFSLPHRRPHFFFPKSRIVR
chain 2: SLMPFSPYEPLNFHAMMDIHFHSPAFQHPPTEFIREGDDDRTVCREIRHNSTGCLRMKDQCDKCREILSVDCSTNNPSQAKLRRELDESLQVAERLTRKYNELLKSYQWKMLNTSSLLEQLNEQFNWVSRLANLTQGEDQYYLRVTTVASHTSDSDVPSGVTEVVVKLFDSDPITVTVPVEVSRKNPKFMETVAEKALQEYRKKHREE
modifications: deletion taken as helix α7 = 244-257 as printed; exact CC1 limits only in Fig. 3a; five interchain disulfides; six N-glycans Secreted from HEK293E, glycosylated, Ca2+-bound LDLR repeats, disulfides; C-terminal C-tag left out. Deletion 751-779 taken as printed, in the numbering of the long isoform

Tests used:
Assay in all cases: ELISA
[1] = target: Clu mutant DD2 (human, UniProt P10909 23-227; P10909 228-449)
[2] = target: Clu mutant DD1 (human, UniProt P10909 23-227; P10909 228-449)
[3] = target: Clu mutant DD3 (human, UniProt P10909 23-227; P10909 228-449)
[4] = target: Clu mutant CC3 (human, UniProt P10909 23-227; P10909 228-449)
[5] = target: TL4
[6] = target: Clu mutant TL3 (human, UniProt P10909 23-227; P10909 228-449)
[7] = target: VLDLR(28–797)Δ(751–779)-C-tag (VLDLR ectodomain) (human, UniProt P98155-2 28-797, Δ(751–779))

| Binder | Kd [1] | Kd [2] | Kd [3] | Kd [4] | Kd [5] | Kd [6] | Kd [7] |
| --- | --- | --- | --- | --- | --- | --- | --- |
| B1 | 1.19 µM | 0.137 µM | 1.18 µM | 0.109 µM | 0.256 µM | 0.989 µM | – |
| B2 | – | – | – | – | – | – | 0.662 µM |
